Test results: publication PMC2696559

Target: histone H2b (human, UniProt Q16778 1-126)
Assay: EMSA

B1: 16-mer oligonucleotide (ssDNA)
DNA: GGAGGAGGAGGAGGAG
B1: binds.
